The record followed here is the RNAGym collection of RNA variant scans (doi:10.1073/pnas.2313332121).

The chains are these.
B1: TPR 5TU (parent)
chain: GGAUCUUCUCGAUCUAACAAAAAAGACAAAUCUGCCACAAAGCUUGAGAGCAUCUUCGGAUGCAGAGGCGGCAGCCUUCGGUGGCGCGAUAGCGCCAACGUUCUCAACUAUGACACGCAAAACGCGUGCUCCGUUGAAUGGAGUUUAUCAUG

This sample holds only a part of the variants without activity.

In the series the parent is B1. Description: polymerase ribozyme fitness, log enrichment relative to wild type (log ratio); higher = more active; in vitro selection for triplet polymerase activity. A digest of the protocol: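 Each subunit of a heterodimeric triplet polymerase ribozyme was mutagenized into a library by PCR, transcribed, and subjected to one round of in vitro selection, run in triplicate. Libraries were annealed with a biotinylated primer, the partner subunit and triplets, incubated frozen at −7 °C, and extended constructs were gel-excised, captured on streptavidin beads and recovered by RT-PCR. Input and output libraries were sequenced on Illumina, keeping genotypes with ≥10 input reads and ≥1 read per output. Fitness is log base 2 of genotype enrichment divided by wild-type enrichment, from inverse-variance-weighted replicate averages.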
For the variant GGAUCGUCUCGAUCUAACAAAAAAGACAAAUCUGCCACAACACUUGAGAGCAUCUCCGGAUGCAGAGGCGGCAGCCUUCGGUGGAGCGAUAGCGCCAAAGUUCUCAACUAUGACACGCAAAACGCGUGCUCCGUUGAAUGGAGUUUAUCAUG, the “polymerase ribozyme fitness (log ratio)” value is at most -4.2.

Regarding GGAUCGUCUCGAUCUAACAUAAAAGACAAAUCUGCCACAAUGCAUGAGAGCAUCGUCGGAUGCAGAGGCGGCAGCCUUCGGUAGCGCUAUAGCGCCAUCGUUCUCAACUAUGACACGCAAGACGCGUGCUCCGUUGAAUGGAGUAUAUCAUG, the “polymerase ribozyme fitness (log ratio)” value was at most -4.2. For the variant GGAUCGUCUCGAUCUAACAAAGAAGACAAAUCUGCCACAAAGCUUGAGAGCAUCUUCGGAUGCAGAGGCGGCAGCCUUCGGUGGCGCGAUAGCGCCAACGUUCUCAACUAUGACACGCAAAACGCGUGCUCCGUUGAAAGGAGUUUAUCAUG, the “polymerase ribozyme fitness (log ratio)” value was at most -4.2.

As for GGAUCGUCUCGAUCUAACAAAAAAGACAAAUCUGCCACAAAGCUUGCGAGCAUCUUCGGAUGCAGAGGCGGCAGCCUUCGGUGGCGAGAUAGCGCCAACGUUCUCAACUAUGACACGCAAAACGCGUGCUCCGUUGAAUGGAGUUUAUCAUG, the “polymerase ribozyme fitness (log ratio)” value is at most -4.2. As for GGAUCGUCUCGAUCUAACAUAAAAGACAAAUCUGCCACAAAGCUUGAGAGCAUCUUCGGAUGCAGAGGCGGCAGCCUUCGGUGGCGCGAUAGAGCCAACGUUCUCAACUAUGACAAGCAAAACGCGUGCUCCGUAGAAUGGAGUUUAUCAUG, the “polymerase ribozyme fitness (log ratio)” value was -3.29. For GGAUCGUCUCGAUCUAACAAAAAAGACAAAUCUGCCACAAAGCUUGAGAGCAUCUUCGGAUGCAGAGGCGGCUGCCUUCGGUGGCGCGAUAGCGCCAACGUUCUCAACUAUGACACGCAAAACGCGUGCUCCGUUGAAUGGAGUUUAUCAUG the value was -0.322; for GGAUCGUCUCGAUCUAACAAAAAAGACAUAUCUGCCACAAAGCUUGAGAGCAUCUUCGGAUGCAGAGGCGGCGGCCCUCGGUGGCGCGAUAGCGUCAACGUUCUCAUCUAUGACACGCAAAACGCGUGCUCCGUUGAAUGGAGUUUAUCAUG, at most -4.2.

For GGAUCGUCUCGAUCUAACAAAUAAGACAAAUCUGCCACAGAGCUUGAGAGCAUCUUAGGAUGCAGAGGCGGCAGCCUUCGGUGGCGCGAUAGCACCAACGUUCUCAACUAUGACACGCAAAACGCGUGCUCCGUUGAAUGGAGUUUAUCAUG, the “polymerase ribozyme fitness (log ratio)” value is -2.43.

For GGAUCGUCUCGAUCUAACAAAAAAGACAAAUCUGCCACAUAGCUUGAGUGCAUCUUCGGAUGCAGCGGCGGCAGCCUUCGGUGGCGCGAUAGCUCCAUCGUUCUCAACUAUGACACGCAAAACGCGUGCUCCGCUGAAUAGAGUUUAUCAUG, the “polymerase ribozyme fitness (log ratio)” value is at most -4.2. For GGAUCGUCUCGAUCUAACAAAAAAGACAAAUCUGCCACAUAGCUUGAGAGCAUCUACGGAUGCAGAGGCGGCAGCCUUCGGUGGCGCGAUAGUGCCAACGUUCUCCACUAUGACACGCAAAACGCGUGCUCCGUUGAAUGGAGUUUAUCAUG the value was -1.92; for GGAUCGUCUCGAUCUAACAAUAAAGACAAAUCUGCCACAAAGCUUGAGAGCAUCUUCGGAUGCAGAGGCGGCAGCCUUCGGUGGCGCGAUAGCACCAACGUUCGCAACUAUGACACGCAAAACGCGAGCUCCGUUGAAUGGAGUUUAUCAUG, at most -4.2. For GGAUCGUCUCGAUCUAACAAUAAAGGCAAAUCUGCCACACAGCUUGAGAGCAUCUUCGGAUGCAGGGGCGGCAGCCUUCGGUGGCGCGAUAGCGCCAACGUUCUCAUCUAUGACACGCAAAACGCGUGCUCCGUAGAAUGAAGUUUAUCAUG the value was at most -4.2; for GGAUCGUCUCGAUCUAACAAAAAAGACAAAUCUGCCACAAAGCUUGAGAGCCUCUUCGGAUGCAGAGGCGGCAGCCUUCGGUGGCGCGAUAGCGCCAACGUUCUCAACUAUGACACGCAAAACGCGUGCUCCGUUGAAUGGAGUUUAUCAUG, -0.94; for GGAUCGUCUCGAUCUAACAAAAAAGACAAAUCUGCCACAAAGCUUGAGAGCAUCUUCGGAUGCAGAGGCGGCAGCCUUCGGUGGCGCGAUAGCGCCAACGUUCUCAACUAUGACACGCAAUACGCGUGCUCCGUUGAAUGGAGUUUAUCAUG, -0.506. For GGAUCGUCUCGAUCUAACAAAAAAGACACAUCUGCCACAAAGCUUGAGAGCAUCUUCGGAUGCAGAGGCGGCUGCCUUCGGUGGCUCGAUAGCGCCAACGUUCUCAACUAUGACACGCAAAACGCGUGCUCCGUUGAAUGGAGUUUAUCAUG the value was at most -4.2; for GGAUCGUCUCGAUCUAACAAAAAUGACAAAUCUGCCACAAAGCUUGAGAGCAUCUUCGGAUGCAGAGGCGGCAGCCUUCGGUGGCGCGAUAGCGCCAACGUUCUCAACUAUGACACGCUAAACGCGUGCUCCGUUUAAUGGAGUUUAUCAUG, -3.74; for GGAUCGUCUCGAUCUAACAAAAAAGACAAAUCUGCCACAACGCUUGAGGGCAUCUUCGGAUGCAGAGGCGGCAGCCUUCGGUGGCGCGAUAGCGGCAACGUUCUCAACUAUGACACGCAAAACGCGUGCUCCGUUGAAUGGAGUUUAUCAUG, -2.03. As for GGAUCGUCUCGAUCUAACAAAAAAGACAACUCUGCCACAAAGGUUGAGAGCCUUUUCGGAUGCAGAGGCGGCAGCCAUCGGUGGGGCGAUAGCGCCAACGUUCUCAACUAUGACACGCGAAACGCGUGCUCCGUUGAAUGGAGUUUAGCAUG, the “polymerase ribozyme fitness (log ratio)” value is at most -4.2. For GGAUCGUCUCGAUCUAACAAAAAAGACGAAUCUGCCACAAAGCUUGAGAGCAUCUUCUGAUGCAGAGGCGGCAGCCUUCGGUGGUGCGAUAGCGCCAACGUUCUCAACUAUGACACGCAAAACGCGUGCUCCGUUGAAUGGAGUUUAUCAUG the value was at most -4.2.
